One protein from EP0155825A2, “Novel choline derivatives” (NITTO BOSEKI CO., LTD., priority 1984, dated 1985) can be followed below.

Substrate in this data set: C[N+](C)(C)CCOC(=O)c1ccc(O)c(O)c1
Briefly: Km of the substrate for cholinesterase (UV method, absorbance decrease at 340 nm). In kind it is biochemical. The conditions noted are these: other: 50 mM TRIS-maleate buffer (pH 8.20); compound as substrate of Ch-E; pH 8.2; 37.0 °C. From the text:
Fig. 1 represents UV spectra of 3,4-dihydroxybenzoylcholine iodide (hereinafter referred to briefly as DHBCI) and 3,4-dihydroxybenzoic acid. When DHBCI is hydrolyzed by the action of Ch-E, there are formed choline and 3,4-dihydroxybenzoic acid. […] Therefore, when DHBCI, a novel compound according to the present invention, is used as substrate in the assay of enzymatic activity of Ch-E and the reaction is traced through the absorbance at a wavelength of 340-360 nm, it is possible to follow precisely the decrease in substrate DHBCI. In the previously mentioned method of W. Kalow, since the measurement is done at a shorter wavelength of 240 nm, the initial absorption is interfered with by the blood constituents, whereas at a wavelength of 340-360 nm, the interference is very little and the conditions of reaction can be set up more easily. […]
The assay was performed by adjusting the substrate concentration to 0.25 mM with a 50 mM TRIS-maleate buffer (pH 8.20), preheating for about 5 minutes 2.0 mt of-the adjusted solution to 37°C, admixing the preheated solution with 200 µℓ of a serum, and immediately measuring the absorbance decrease at 340 nm of the mixture at 37°C. […] The activity of Ch-E was calculated from the following equation: [formula] • ^* ΔO.D.: Absorbance change per minute at a wavelength of 340 nm. • ^** Molar absorbance at 340 nm: 2960

As usually defined, the Km is the concentration of substrate that gives half-maximal velocity.

B1: cholinesterase (enzyme code number of 3.1.1.8; referred to briefly as Ch-E) (Homo sapiens) (protein)
chain: EDDIIIATKNGKVRGMNLTVFGGTVTAFLGIPYAQPPLGRLRFKKPQSLTKWSDIWNATKYANSCCQNIDQSFPGFHGSEMWNPNTDLSEDCLYLNVWIPAPKPKNATVLIWIYGGGFQTGTSSLHVYDGKFLARVERVIVVSMNYRVGALGFLALPGNPEAPGNMGLFDQQLALQWVQKNIAAFGGNPKSVTLFGESAGAASVSLHLLSPGSHSLFTRAILQSGSFNAPWAVTSLYEARNRTLNLAKLTGCSRENETEIIKCLRNKDPQEILLNEAFVVPYGTPLSVNFGPTVDGDFLTDMPDILLELGQFKKTQILVGVNKDEGTAFLVYGAPGFSKDNNSIITRKEFQEGLKIFFPGVSEFGKESILFHYTDWVDDQRPENYREALGDVVGDYNFICPALEFTKKFSEWGNNAFFYYFEHRSSKLPWPEWMGVMHGYEIEFVFGLPLERRDNYTKAEEILSRSIVKRWANFAKYGNPNETQNNSTSWPVFKSTEQKYLTLNTESTRIMTKLRAQQCRFWTSFFPKVLEMTGNIDEAEWEWKAGFHRWNNYMMDWKNQFNDYTSKKESCVGL
notes: admixing the preheated solution with 200 µℓ of a serum; tissue Nissui Seiyaku Co. consera I; host or cells: serum (commercial control serum)
B1: the Km came out at 26 µM.
